{
  "source": "patent US20240117073A1",
  "about": "“METHODS OF TREATING NEOPLASTIC ASTROCYTOMA” (Ludwig Institute for Cancer Research Ltd., priority 2009, published 2024)",
  "molecules": {"B1": {"name": "mAb806: murine monoclonal antibody recognizing de2-7 EGFR and amplified EGFR; VH SEQ ID NO:2, VL SEQ ID NO:4 (antibody, listed as Mus musculus, V domains shown)", "VH": "MRVLILLWLFTAFPGVLSDVQLQESGPSLVKPSQSLSLTCTVTGYSITSDFAWNWIRQFPGNKLEWMGYISYSGNTRYNPSLKSRISITRDTSKNQFFLQLNSVTIEDTATYYCVTAGRGFPYWGQGTLVTVSA", "VL": "MVSTAQFLAFLLLWFPGARCDILMTQSPSSMSVSLGDTVSITCHSSQDINSNIGWLQQRPGKSFKGLIYHGTNLDDEVPSRFSGSGSGADYSLTISSLESEDFADYYCVQYAQFPWTFGGGTKLEIKR"}},
  "key": {"[1]": {"target": "T1, junction peptide (Homo sapiens, UniProt P00533, DELINS30-297G)", "T1 construct": "purchased Biosource, Camarillo, CA; host or cells: synthetic", "assay": "dot-blot immune stain", "format": "binding", "protocol": "Dot-blot immune stain experiments were also performed. Serial dilutions of peptide were spotted in 0.5 μl onto a PVDF or nitrocellulose membranes. […] Control antibodies were also negative for peptide binding."}, "[2]": {"tested_on": "U87MG xenografts", "assay": "established xenograft model", "format": "in vivo, nude mice", "settings": "1 mg per injection", "protocol": "Tumor cells (3×10^6) in […] of PBS were inoculated subcutaneously into both flanks of 4-6 week old female nude mice (Animal Research Centre, Western Australia, Australia). […] Treatment was continued for a total of 6 doses, 3 times per week for 2 weeks. In the established model, treatment was started when tumors had reached a mean volume of 65±6.42 mm^3 (U87MG.Δ2-7), 84±9.07 mm^3 (U87MG), 73±7.5 mm^3 (U87MG.wtEGFR) or 201±19.09 mm^3 (A431 tumors). Tumor volume in mm^3 was determined using the formula (length×width^2)/2, where length was the longest axis and width the measurement at right angles to the length (Clark et al. (2000) Therapeutic efficacy of anti-Lewis (y) humanized 3S 193 radioimmunotherapy in a breast cancer model: enhanced activity when combined with Taxol chemotherapy. Clin. Cancer Res. 6, 3621-3628). Data was expressed as mean tumor volume±S.E. for each treatment group. Statistical analysis was performed at given time points using Student's t-test. Animals were euthanized when the xenografts reached an approximate volume of 1.5 cm^3 and the tumors excised for histological examination. This research project was approved by the Animal Ethics Committee of the Austin and Repatriation Medical Centre. […]"}, "[3]": {"tested_on": "U87MG brain xenografts", "assay": "systemic treatment of intracranial xenografts", "set-up": "species or system nude mice", "settings": "mouse, in vivo", "method": "(§4) U87MG.ΔEGFR cells (1×10^5) or 5×10^5 LN-Z308.ΔEGFR, A1207.ΔEGFR, U87MG, U87MG.DK, and U87MG.wtEGFR cells in 5 μl of PBS were implanted into the right corpus stratum of nude mice brains as described previously (Mishima et al. (2000) A peptide derived from the non-receptor binding region of urokinase plasminogen activator inhibits glioblastoma growth and angiogenesis in vivo in combination with cisplatin. Proc. Natl. Acad. Sci. U.S.A. 97, 8484-8489)."}, "[4]": {"tested_on": "xenograft U87MG (native)", "assay": "immunohistochemistry of xenograft sections", "set-up": "species or system human", "protocol": "(§1) Xenografts were excised and bisected. One half was fixed in 10% formalin/PBS before being embedded in paraffin. Four micron sections were then cut and stained with haematoxylin and eosin (H&E) for routine histological examination. The other half was embedded in Tissue Tek® OCT compound (Sakura Finetek, Torrance, CA), frozen in liquid nitrogen and stored at −80° C. Thin (5 micron) cryostat sections were cut and fixed in ice-cold acetone for 10 min followed by air drying for a further 10 min. Sections were blocked in protein blocking reagent (Lipshaw Immunon, Pittsburgh U.S.A.) for 10 min and then incubated with biotinylated primary antibody (1 mg/ml), for 30 min at room temperature (RT). All antibodies were biotinylated using the ECL™ protein biotinylation module (Amersham, Baulkham Hills, Australia), as per the manufacturer's instructions. After rinsing with PBS, sections were incubated with a streptavidin horseradish peroxidase complex for a further 30 min (Silenus, Melbourne, Australia). Following a final PBS wash the sections were exposed to 3-amino-9-ethylcarbozole (AEC) substrate (0.1 M acetic acid, 0.1 M sodium acetate, 0.02 M AEC (Sigma Chemical Co., St Louis, MO)) in the presence of hydrogen peroxide for 30 min. Sections were rinsed with water and counterstained with hematoxylin for 5 min and mounted.\n(§2) Bound antibody was detected using the Dako Envision™+HRP detection system as per manufacturer's instructions. Sections were finally rinsed with water, counterstained with hematoxylin and mounted."}, "[5]": {"tested_on": "xenograft A431", "assay": "immunohistochemistry of xenograft sections", "set-up": "species or system human", "protocol": "as §1, §2"}, "[6]": {"target": "T2, biotinylated de2-7 specific peptide (Homo sapiens, UniProt P00533, DELINS30-297G)", "T2 construct": "purchased Auspep, Melbourne, Australia; host or cells: synthetic (Fmoc chemistry)", "assay": "ELISA on de2-7 peptide", "format": "binding", "description": "In the second assay, the biotinylated de2-7 specific peptide (Biotin-[…] (SEQ ID NO:5)) was bound to ELISA plates precoated with streptavidin (Pierce, Rockford, Illinois). Antibodies were bound and detected as in the first assay."}, "[7]": {"tested_on": "A431 xenografts", "settings": "mouse, in vivo", "method": "U87MG or A431 cells were injected on one side 7-10 days before U87MG.Δ2-7 cells were injected on the other side because of the faster growth rate observed for de2-7 EGFR expressing xenografts. Antibodies were radiolabeled and assessed for immunoreactivity as described above and were injected into mice by the retro-orbital route when tumors were 100-200 mg in weight. […] Unless indicated, groups of 5 mice were sacrificed at various time points post-injection and blood obtained by cardiac puncture. The tumors, liver, spleen, kidneys and lungs were obtained by dissection. All tissues were weighed and assayed for ^125I and ^131I activity using a dual-channel counting Window. Data was expressed for each antibody as % ID/g tumor determined by comparison to injected dose standards or converted into tumor to blood/liver ratios (i.e. % ID/g tumor divided by % ID/g blood or liver). Differences between groups were analyzed by Student's t-test."}, "[8]": {"tested_on": "U87MG.wtEGFR brain xenografts", "assay": "systemic treatment of intracranial xenografts", "set-up": "species or system nude mice", "settings": "mouse, in vivo", "method": "as §4"}, "[9]": {"target": "T3, denatured soluble domain of the EGFR (sEGFR) (Homo sapiens, UniProt P00533)", "T3 construct": "sEGFR is the recombinant extracellular domain (amino acids 1-621) of the wild-type EGFR; made in house; host or cells: CHO cells", "assay": "competition ELISA", "format": "binding", "settings": "after unlabeled blocking antibody", "protocol": "Briefly, the denatured soluble domain of the EGFR (sEGFR) was coated on to ELISA plates. The unlabeled 124 or 1133 antibodies were then added across the plate in increasing concentrations."}, "[10]": {"tested_on": "A431 xenografts", "assay": "combination therapy with AG1478, preventative model", "format": "in vivo, mice", "settings": "0.1 mg mAb806; 400 μg AG1478", "protocol": "AG1478 (4-(3-Chloroanilino)-6,7-dimethoxyquinazoline) is a potent and selective inhibitor of the EGFR kinase versus HER2-neu and platelet-derived growth factor receptor kinase (Calbiochem Cat. No. 658552). […] The results are illustrated in FIG. 12. […] 400 μg AG1478 was administered at 0, 2, 4, 7, 9, and 11 days post xenograft."}, "[11]": {"tested_on": "A431 xenografts", "assay": "preventative xenograft model", "format": "in vivo, nude mice", "protocol": "(§3) Tumor cells (3×10^6) in […] of PBS were inoculated subcutaneously into both flanks of 4-6 week old female nude mice (Animal Research Centre, Western Australia, Australia). […] Treatment was continued for a total of 6 doses, 3 times per week for 2 weeks. In the established model, treatment was started when tumors had reached a mean volume of 65±6.42 mm^3 (U87MG.Δ2-7), 84±9.07 mm^3 (U87MG), 73±7.5 mm^3 (U87MG.wtEGFR) or 201±19.09 mm^3 (A431 tumors). Tumor volume in mm^3 was determined using the formula (length×width^2)/2, where length was the longest axis and width the measurement at right angles to the length (Clark et al. (2000) Therapeutic efficacy of anti-Lewis (y) humanized 3S 193 radioimmunotherapy in a breast cancer model: enhanced activity when combined with Taxol chemotherapy. Clin. Cancer Res. 6, 3621-3628). Data was expressed as mean tumor volume±S.E. for each treatment group. Statistical analysis was performed at given time points using Student's t-test. Animals were euthanized when the xenografts reached an approximate volume of 1.5 cm^3 and the tumors excised for histological examination. This research project was approved by the Animal Ethics Committee of the Austin and Repatriation Medical Centre.\nThese cells contain an amplified EGFR gene and express approximately 2×10^6 receptors per cell. […]"}, "[12]": {"target": "T4, Peptide C: LEEKKGNYVVTDH(K-Biot)-OH (Homo sapiens, UniProt P00533, DELINS30-297G)", "T4 construct": "purchased Biosource, Camarillo, CA; host or cells: synthetic", "assay": "BIAcore, immobilized Peptide C", "format": "binding", "settings": "mAbL8A4 even at 6.25 nM; mAb806 up to 100 nM (highest tested)", "protocol": "Peptide C was immobilized on a Streptavidin microsensor chip at a surface density of 350RU (+/−30RU). Serial dilutions of mAbs were tested for reactivity with the peptide. Blocking experiments using non-biotinylated peptide were performed to assess specificity."}, "[13]": {"tested_on": "A431 xenografts", "assay": "established xenograft model", "format": "in vivo, nude mice", "settings": "day 13; 1 mg injection", "protocol": "as §3\nAt day 13, when control animals were sacrificed, the mean tumor volume was 1142±120.06 mm^3 for the control group and 451±65.58 mm^3 for the 1 mg injection group (p<0.0001)."}},
  "note": "Where “and” joins values, the source holds several entries; their conditions need not be identical. Equal entries are not always repeated.",
  "data": [
    {"molecule": "B1", "values": [
      {"measurement": "binding to peptide on membranes", "setting": "[1]", "result": "did not bind peptide"},
      {"measurement": "effect on xenograft growth", "setting": "[2]", "result": "no effect"},
      {"measurement": "effect on survival", "setting": "[3]", "result": "did not extend survival"},
      {"measurement": "immunohistochemical staining", "setting": "[4]", "result": "undetectable"},
      {"measurement": "immunohistochemical staining", "setting": "[5]", "result": "pos. (predominantly"},
      {"measurement": "binding to unique de2-7 EGFR peptide", "setting": "[6]", "result": "Neither mAb806 nor the 528 antibody bound to the peptide"},
      {"measurement": "uptake expressed as % ID/g tumor", "setting": "[7]", "result": "comparatively low"},
      {"measurement": "effect on survival", "setting": "[8]", "result": "slightly extended"},
      {"measurement": "median survival", "setting": "[8]", "result": 23, "unit": "days"},
      {"measurement": "Binding of biotin-labeled 806", "setting": "[9]", "result": "None"},
      {"measurement": "tumor volume", "setting": "[10]", "result": "significant reduction of tumor volume"},
      {"measurement": "effect on xenograft growth", "setting": "[11]; 0.1 mg", "result": "inhibited significantly"},
      {"measurement": "mean tumor volume", "setting": "[11]; day 13, 1 mg injection", "result": "260±60.33 mm^3 and 260±60 mm^3"},
      {"measurement": "reactivity with Peptide C", "setting": "[12]", "result": "did not show detectable specific reactivity"},
      {"measurement": "mean tumor volume", "setting": "[13]", "result": "451±65.58 mm^3 and 450±70 mm^3"}
    ]}
  ]
}
